Measured values reported in patent US20020102534A1 (INSTITUT PASTEUR AND INSTITUT NATIONAL DE LA SANTE ET DE LA …, published 2002).

Biological target: the molecule itself
Experiment: yeast two-hybrid bait-prey matrix (LacZ and HIS3 reporters)

B1: HCV core protein, full-length (capsid) (other)
chain: MSTNPKPQRKTKRNTNRRPQDVKFPGGGQIVGGVYLLPRRGPRLGVRATRKTSERSQPRGRRQPIPKARRPEGRTWAQPGYPWPLYGNEGCGWAGWLLSPRGSRPSWGPTDPRRRSRNLGKVIDTLTCGFADLMGYIPLVGAPLGGAARALAHGVRVLEDGVNYATGNLPGCSFSIFLLALLSCLTVPASA
notes: mature; also called capsid protein; p22
  binding result: no binding

B2: truncated HCV capsid protein C-delta-115 (other)
chain: MSTNPKPQRKTKRNTNRRPQDVKFPGGGQIVGGVYLLPRRGPRLGVRATRKTSERSQPRGRRQPIPKARRPEGRTWAQPGYPWPLYGNEGCGWAGWLLSPRGSRPSWGPTDPRRR
notes: also called CD115; CoreD115
  binding result: binds
